In article PMC3025051 (Cell cycle (Georgetown, Tex.), 2011):

Molecular target: T1, MAL-Myc-tagged Cdc18 wild type (bacterial recombinant) (S. pombe, UniProt P41411 1-577)
T1 sequence (looked up): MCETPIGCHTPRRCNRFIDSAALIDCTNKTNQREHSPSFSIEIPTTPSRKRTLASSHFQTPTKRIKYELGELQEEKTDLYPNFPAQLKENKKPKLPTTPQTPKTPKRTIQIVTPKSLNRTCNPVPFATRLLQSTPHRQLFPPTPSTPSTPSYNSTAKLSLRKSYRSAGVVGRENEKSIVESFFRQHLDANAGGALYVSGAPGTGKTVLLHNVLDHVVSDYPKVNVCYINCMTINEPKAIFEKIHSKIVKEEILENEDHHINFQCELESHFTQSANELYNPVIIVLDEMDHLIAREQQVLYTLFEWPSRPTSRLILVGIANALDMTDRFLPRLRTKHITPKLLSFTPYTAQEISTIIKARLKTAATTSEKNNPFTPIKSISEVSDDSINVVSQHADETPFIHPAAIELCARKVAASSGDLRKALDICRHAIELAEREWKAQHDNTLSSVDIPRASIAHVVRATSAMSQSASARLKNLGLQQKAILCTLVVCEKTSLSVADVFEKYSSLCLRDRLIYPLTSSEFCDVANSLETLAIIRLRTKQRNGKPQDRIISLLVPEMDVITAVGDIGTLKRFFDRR
Assay: pull-down

B1: 6his-FLAG-Swi6 wild type (bacterial recombinant) (natural protein, S. pombe, UniProt P40381 1-328, looked up)
chain: MKKGGVRSYRRSSTSKRSVIDDDSEPELPSMTKEAIASHKADSGSSDNEVESDHESKSSSKKLKENAKEEEGGEEEEEDEYVVEKVLKHRMARKGGGYEYLLKWEGYDDPSDNTWSSEADCSGCKQLIEAYWNEHGGRPEPSKRKRTARPKKPEAKEPSPKSRKTDEDKHDKDSNEKIEDVNEKTIKFADKSQEEFNENGPPSGQPNGHIESDNESKSPSQKESNESEDIQIAETPSNVTPKKKPSPEVPKLPDNRELTVKQVENYDSWEDLVSSIDTIERKDDGTLEIYLTWKNGAISHHPSTITNKKCPQKMLQFYESHLTFRENE
- binding result: binds
